One assay concerns the target T1, Human CD64 (FcγRI) (human, UniProt P12314 16-288, biotinylated).
T1 construct: Bought recombinant receptor; also called hFcγRI; Human FcγRI
As to the kind of experiment: SPR 25C, average.

Assay [1] deals with T2, Human CD32a H131 (FcγRIIa H131) (human, UniProt P12318 36-218, limits assumed, biotinylated).
T2 construct: Bought recombinant receptor; also called hFcγRIIa H131; FcgRIIa H131
T2 sequence (looked up): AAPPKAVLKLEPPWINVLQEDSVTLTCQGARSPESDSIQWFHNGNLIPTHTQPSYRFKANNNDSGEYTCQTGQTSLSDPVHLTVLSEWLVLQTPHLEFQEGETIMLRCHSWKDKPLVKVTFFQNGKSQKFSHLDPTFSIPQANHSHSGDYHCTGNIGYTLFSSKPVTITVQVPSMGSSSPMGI
As to the kind of experiment: SPR, summary of FcγR affinities. (In general: SPR reads the build-up and loss of mass on a sensor chip optically.)
Experimental: (§1) Human and cynomolgus CD64, high and low affinity alleles of CD16a (V158 and F158, respectively), two alleles of CD32a (H131 and R131), CD16b, CD32b and cynomolgus CD16 were captured via biotin on a primed (according to the manufacturers instruction) Biacore chip. […] Due to irreversibility of streptavidin-biotin interaction, the capture step for all receptors except FcγRI (CD64) was performed just once prior to the start of the binding experiment. hCD64 and cyno CD64 capture on the CAP chip surface was performed during each cycle in accordance with the manufacturer's instructions for the Biotin CAPture kit.
(§2) Detailed description of each individual receptor binding is presented below.

Assay [2] concerns the target T3, Human CD32a R131 (FcγRIIa R131) (human, UniProt P12318 36-218, limits assumed, biotinylated).
T3 construct: Bought recombinant receptor; also called hFcγRIIa R131; FcgRIIa R131
T3 sequence (looked up): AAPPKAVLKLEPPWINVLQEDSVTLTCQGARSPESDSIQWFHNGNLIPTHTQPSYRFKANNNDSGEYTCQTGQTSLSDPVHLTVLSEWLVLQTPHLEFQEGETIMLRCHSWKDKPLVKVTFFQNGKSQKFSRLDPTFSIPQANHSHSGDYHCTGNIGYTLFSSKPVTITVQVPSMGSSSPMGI
As to the kind of experiment: SPR, summary of FcγR affinities.
Experimental: as §1, §2

The next assay concerns the target T4, Human CD32b (FcγRIIb) (human, UniProt P31994 46-217, limits assumed, biotinylated).
T4 construct: Bought recombinant receptor; also called hFcγRIIb; CD32b (FcγR2b)
T4 sequence (looked up): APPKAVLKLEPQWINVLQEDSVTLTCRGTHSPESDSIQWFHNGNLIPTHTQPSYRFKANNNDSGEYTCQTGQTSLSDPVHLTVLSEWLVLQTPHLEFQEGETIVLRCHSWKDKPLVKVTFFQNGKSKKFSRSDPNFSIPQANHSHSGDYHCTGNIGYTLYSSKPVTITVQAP
As to the kind of experiment: SPR, summary of FcγR affinities.

The target of assay [3] is T5, Human CD16a V158 (FcγRIIIa V158) (human, UniProt P08637 17-208, biotinylated).
T5 construct: Bought recombinant receptor; also called hCD16aV; hFcγRIIIa V158
T5 sequence (P08637 17-208 F176V limits assumed): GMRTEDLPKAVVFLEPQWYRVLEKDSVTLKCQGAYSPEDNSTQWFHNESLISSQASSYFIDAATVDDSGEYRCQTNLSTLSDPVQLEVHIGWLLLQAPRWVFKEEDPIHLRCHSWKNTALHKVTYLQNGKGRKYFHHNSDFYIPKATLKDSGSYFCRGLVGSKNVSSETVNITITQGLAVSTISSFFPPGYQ
As to the kind of experiment: SPR, summary of FcγR affinities.
Experimental: as §1, §2

Assay [4] addresses T6, Human CD16a F158 (FcγRIIIa F158) (human, UniProt P08637 17-208, biotinylated).
T6 construct: Bought recombinant receptor; also called hFcγRIIIa F158
As to the kind of experiment: SPR, summary of FcγR affinities.
Experimental: as §1, §2

Assay [5] addresses T7, Human CLEC12A-His (recombinant, K244 WT) (human, UniProt Q5QGZ9 65-265).
T7 construct: Made in house (Dragonfly Tx); also called hCLEC12A; hCLEC12A-His; not shown: His tag
T7 sequence: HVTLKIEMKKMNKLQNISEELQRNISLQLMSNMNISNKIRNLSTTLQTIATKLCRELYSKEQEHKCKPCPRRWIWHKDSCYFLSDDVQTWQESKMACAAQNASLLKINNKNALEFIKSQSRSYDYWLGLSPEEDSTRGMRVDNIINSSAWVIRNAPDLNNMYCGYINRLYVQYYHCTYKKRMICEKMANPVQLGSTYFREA
As to the kind of experiment: SPR, two-state fit (ka1); control sample.

The target of a further assay is T8, Cynomolgus CD64 (FcγRI) (cynomolgus monkey, UniProt A0A2K5U901 33-309, Biotinylated and captured on the CAP chip (p-1094); the biotin site is not stated.).
T8 construct: Bought recombinant receptor; also called cFcγRI; Cynomolgus FcγRI; not shown: The vendor's biotinylation and purification tag (ACRO FCA-C82E8)
T8 sequence (A0A2K5U901 entry or part of it limits assumed): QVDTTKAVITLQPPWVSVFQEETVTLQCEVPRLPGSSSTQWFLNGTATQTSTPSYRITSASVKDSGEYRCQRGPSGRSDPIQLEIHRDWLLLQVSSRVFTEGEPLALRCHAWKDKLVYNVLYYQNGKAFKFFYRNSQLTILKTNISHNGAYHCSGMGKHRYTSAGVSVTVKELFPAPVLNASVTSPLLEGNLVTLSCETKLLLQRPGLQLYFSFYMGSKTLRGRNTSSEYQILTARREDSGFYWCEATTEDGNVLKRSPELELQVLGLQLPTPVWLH
As to the kind of experiment: SPR 25C, biotinylated cyno CD64 captured on CAP chip.

Where “and” joins values, the source holds several entries; their conditions need not be identical. Equal values may be shown once.

The values below come from patent US20220119534A1 (DRAGONFLY THERAPEUTICS, published 2022).

In general, Kd refers to the concentration at which binding is half-saturated. Read a high Kd as a looser complex. What is called koff is the rate constant with which the complex falls apart. A lower koff goes with slow dissociation. What is called kon is a measure of how fast the partners come together.

T1 sequence (P12314 16-288 limits assumed): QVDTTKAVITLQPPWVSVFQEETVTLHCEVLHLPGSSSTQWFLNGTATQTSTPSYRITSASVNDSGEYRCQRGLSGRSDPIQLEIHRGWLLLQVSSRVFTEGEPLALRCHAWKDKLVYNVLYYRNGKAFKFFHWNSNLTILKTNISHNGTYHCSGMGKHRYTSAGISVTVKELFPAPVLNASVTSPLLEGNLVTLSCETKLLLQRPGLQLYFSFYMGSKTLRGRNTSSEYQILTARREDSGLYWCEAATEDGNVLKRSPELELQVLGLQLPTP
T6 sequence (P08637 17-208 limits assumed): as the sequence (P08637 17-208 F176V limits assumed) above, with V160F counted along it
Experimental for Cynomolgus CD64 (FcγRI): as §1
Experimental for Human CD32b (FcγRIIb): as §1, §2
Experimental for Human CD64 (FcγRI): as §1

B1: AB0089 TriNKET (bispecific antibody, human IgG1, kappa)
chain: QLQLQESGPGLVKPSETLSLTCTVSGFSLTNYGLHWIRQPPGKCLEWIGVIWVGGATDYNPSLKSRVTISVDTSKNQFSLKLSSVQAADTAVYYCAKGDYGDTLDYWGQGTLVTVSSGGGGSGGGGSGGGGSGGGGSDIQMTQSPSSLSASVGDRVTITCHASQNINFWLSWYQQKPGKAPKLLIYEASNLHTGVPSRFSGSGSGTDFTLTISSLQPEDFATYYCQQSHSYPLTFGCGTKLEIKGSDKTHTCPPCPAPELLGGPSVFLFPPKPKDTLMISRTPEVTCVVVDVSHEDPEVKFNWYVDGVEVHNAKTKPREEQYNSTYRVVSVLTVLHQDWLNGKEYKCKVSNKALPAPIEKTISKAKGQPREPRVYTLPPCRDELTKNQVSLTCLVKGFYPSDIAVEWESNGQPENNYKTTPPVLVSDGSFTLYSKLTVDKSRWQQGNVFSCSVMHEALHNHYTQKSLSLSPG
heavy: EVQLVESGGGLVKPGGSLRLSCAASGFTFSSYSMNWVRQAPGKGLEWVSSISSSSSYIYYADSVKGRFTISRDNAKNSLYLQMNSLRAEDTAVYYCARGAPIGAAAGWFDPWGQGTLVTVSSASTKGPSVFPLAPSSKSTSGGTAALGCLVKDYFPEPVTVSWNSGALTSGVHTFPAVLQSSGLYSLSSVVTVPSSSLGTQTYICNVNHKPSNTKVDKKVEPKSCDKTHTCPPCPAPELLGGPSVFLFPPKPKDTLMISRTPEVTCVVVDVSHEDPEVKFNWYVDGVEVHNAKTKPREEQYNSTYRVVSVLTVLHQDWLNGKEYKCKVSNKALPAPIEKTISKAKGQPREPQVCTLPPSRDELTENQVSLTCLVKGFYPSDIAVEWESNGQPENNYKTTPPVLDSDGSFFLYSWLTVDKSRWQQGNVFSCSVMHEALHNHYTQKSLSLSPG
light: DIQMTQSPSSVSASVGDRVTITCRASQGISSWLAWYQQKPGKAPKLLIYAASSLQSGVPSRFSGSGSGTDFTLTISSLQPEDFATYYCQQGVSFPRTFGGGTKVEIKRTVAAPSVFIFPPSDEQLKSGTASVVCLLNNFYPREAKVQWKVDNALQSGNSQESVTEQDSKDSTYSLSSTLTLSKADYEKHKVYACEVTHQGLSSPVTKSFNRGEC
notes: F3' format heterodimer of three chains; human IgG1 Fc with EW-RVT and Y349C/S354C mutations; also called AB0089 Lot AB0089-002; CLEC12A TriNKET AB0089
For B1, the dissociation constant Kd in the assay with Human CD64 (FcγRI) amounted to 0.0051 µM; in assay [1] it was 0.9 µM; in assay [2], 1.25 µM; with Human CD32b (FcγRIIb), 6.27 µM; in assay [3], 0.333 µM; in assay [4] it was 1.27 µM. Moreover, in the assay with Cynomolgus CD64 (FcγRI), the Kd was 0.0015 µM and 0.0018 µM and 0.0012 µM. Further, the off-rate (koff) with Human CD64 (FcγRI) is 0.00023 s⁻¹; in the assay with Cynomolgus CD64 (FcγRI), 8.1e-05 s⁻¹ and 9.5e-05 s⁻¹ and 6.6e-05 s⁻¹. Moreover, the on-rate (kon) with Human CD64 (FcγRI) is 46000 M⁻¹ s⁻¹; in assay [5] it was 1.04e+07 M⁻¹ s⁻¹; in the assay with Cynomolgus CD64 (FcγRI), 55000 M⁻¹ s⁻¹ and 54000 M⁻¹ s⁻¹.
